Laboratory results as given in the supplement of paper PMC6757056.
± gives the standard deviation of the averaged measurements.

B1: library; a variant is named by its letters at N, in order (parent)
chain: GCUGUCACCGGUGUAUUACCCUAGUGGUCGACCGGUCUGAUGAGUCUNNNNNNAGACGAAACAGC

Key:
[1] = variants of: B1; test: normalized RNA/DNA level with ligand (relative to sTRSVctl = 100) (log10 (% of sTRSVctl)); ligand: hypoxanthine (xanthine aptamer); higher = less ribozyme self-cleavage, higher mRNA level; conditions: ligand concentration (+) RNA-Seq: 5 mM, HEK293T, reporter: mCherry (pCS4076), ligand present: yes
Outline: (§1)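 Library plasmids carrying ribozyme switches linked to mCherry, or to eGFP in some ligand experiments, were transfected into HEK293T at 4 µg per 6-well well, with any ligand added 1 h earlier. Seventy-two hours on, total RNA was extracted with EDTA and reverse-transcribed, amplified, barcoded and sequenced. RNA level was RNA over DNA reads normalized to a spiked-in non-cleaving sequence or to the top sequences, then scaled and log-transformed. The top set was 25 sequences, the transform was ×100 and log10, and sequences needed ≥100 DNA reads.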

[2] = variants of: B1; test: normalized RNA/DNA level without ligand (relative to sTRSVctl = 100) (log10 (% of sTRSVctl)); ligand: hypoxanthine (xanthine aptamer); higher = less ribozyme self-cleavage, higher mRNA level; conditions: HEK293T, reporter: mCherry (pCS4076), ligand present: no
Outline: as §1

Variant	normalized RNA/DNA level with ligand (log10) [1]	normalized RNA/DNA level without ligand (log10) [2]
CCCGGU	2 ± 0.069	1.92 ± 0.071
GCCGAC	1.891 ± 0.0051	1.55 ± 0.032
CCGACA	1.978 ± 0.01	1.79 ± 0.025
GCGACU	1.92 ± 0.026	1.755 ± 0.013
UCCACA	1.96 ± 0.037	1.835 ± 0.0089
UCCACU	1.957 ± 0.0089	1.99 ± 0.07
UCCACC	2.02 ± 0.029	1.931 ± 0.018
UCCGUC	1.97 ± 0.059	2.03 ± 0.042
UCCGUA	1.956 ± 0.0079	1.7408 ± 0.0014
CCCAUG	1.933 ± 0.0045	1.81 ± 0.048
CCCAUA	1.9 ± 0.06	1.89 ± 0.11
CCCAUU	2 ± 0.03	1.927 ± 0.0023
UCCUUG	1.91 ± 0.034	1.64 ± 0.022
UCCUUC	1.93 ± 0.046	1.89 ± 0.062
UCCUUU	2.01 ± 0.04	1.94 ± 0.032
UCCUUA	1.956 ± 0.015	1.87 ± 0.069
CCCUAG	1.89 ± 0.025	1.77 ± 0.12
CCCUAC	1.973 ± 0.018	1.9 ± 0.11
CCCUAU	1.971 ± 0.0087	1.94 ± 0.025
CCCCAG	1.84 ± 0.062	1.77 ± 0.047
CCCCAU	1.93 ± 0.036	1.87 ± 0.046
CCCCAC	1.987 ± 0.018	1.9 ± 0.073
UCCUCU	1.99 ± 0.053	1.98 ± 0.029
UCCUCG	1.97 ± 0.065	1.68 ± 0.058

Variant	normalized RNA/DNA level with ligand (log10) [1]	normalized RNA/DNA level without ligand (log10) [2]
UCCUCA	2 ± 0.033	1.88 ± 0.048
UCCUCC	1.99 ± 0.055	1.78 ± 0.039
ACCCGA	1.95 ± 0.028	1.755 ± 0.0068
ACCCGC	1.91 ± 0.02	1.815 ± 0.016
ACCCGU	1.94 ± 0.024	1.82 ± 0.048
ACCUUU	1.97 ± 0.034	1.89 ± 0.0069
ACCUUC	1.958 ± 0.018	1.96 ± 0.03
ACCUUA	1.94 ± 0.068	1.86 ± 0.03
GCCGCU	1.98 ± 0.05	1.95 ± 0.046
GCCGCC	1.99 ± 0.068	1.81 ± 0.1
UCCCCU	1.996 ± 0.014	1.9 ± 0.023
UCCCCC	1.9 ± 0.075	1.782 ± 0.016
UCCCCG	1.88 ± 0.025	1.5 ± 0.024
ACGACC	1.97 ± 0.051	1.85 ± 0.02
CCCAGG	1.934 ± 0.018	1.83 ± 0.019
CCCAGC	1.999 ± 0.0073	1.877 ± 0.013
CCCAGA	1.93 ± 0.048	1.83 ± 0.046
CCCAGU	1.934 ± 0.0021	1.89 ± 0.032
CCCUUU	2 ± 0.059	1.938 ± 0.0021
CCCUUG	1.984 ± 0.013	1.84 ± 0.045
GCCUCA	1.98 ± 0.07	1.9 ± 0.024
GCCUCC	1.95 ± 0.043	1.95 ± 0.023
GCCUCU	2.011 ± 0.019	1.96 ± 0.02
ACCGGA	1.94 ± 0.039	1.903 ± 0.014

Variant	normalized RNA/DNA level with ligand (log10) [1]	normalized RNA/DNA level without ligand (log10) [2]
ACCGGC	2.001 ± 0.012	1.96 ± 0.073
ACCGGU	1.99 ± 0.076	1.844 ± 0.0038
UCGAGG	1.89 ± 0.036	1.59 ± 0.056
UCGAGC	1.97 ± 0.029	1.6 ± 0.1
CCGAAU	1.9 ± 0.083	1.66 ± 0.028
CCGAAC	1.9 ± 0.019	1.606 ± 0.0099
CCCCUG	1.927 ± 0.0039	1.81 ± 0.04
CCCCUA	1.98 ± 0.061	1.855 ± 0.0056
CCCCUU	2 ± 0.045	1.913 ± 0.014
CCCACC	2.01 ± 0.063	1.96 ± 0.032
CCCACU	1.96 ± 0.037	1.87 ± 0.022
CCCACG	1.917 ± 0.019	1.83 ± 0.029
GCGCGC	1.93 ± 0.082	1.68 ± 0.026
GCGCGU	1.92 ± 0.064	1.58 ± 0.12
GCGCGA	1.844 ± 0.0031	1.51 ± 0.025
GCCGUC	1.94 ± 0.096	1.91 ± 0.074
GCCGUG	1.91 ± 0.025	1.48 ± 0.036
GCCGUA	1.965 ± 0.011	1.84 ± 0.061
CCCUGG	1.91 ± 0.028	1.8 ± 0.05
CCCUGC	2.04 ± 0.059	1.901 ± 0.0066
CCCUGU	1.94 ± 0.078	1.94 ± 0.053
GCCCAU	1.929 ± 0.0057	1.866 ± 0.00087
GCCCAA	1.94 ± 0.037	1.8 ± 0.021
GCCCAC	1.92 ± 0.023	1.76 ± 0.028

Variant	normalized RNA/DNA level with ligand (log10) [1]	normalized RNA/DNA level without ligand (log10) [2]
UCCAGC	2.03 ± 0.048	1.9 ± 0.082
UCCAGA	1.93 ± 0.054	1.78 ± 0.048
UCCAGG	1.9095 ± 0.00051	1.8002 ± 0.0018
ACCGCU	1.925 ± 0.0096	1.89 ± 0.041
ACCGCA	1.93 ± 0.082	1.845 ± 0.017
ACCCUA	1.937 ± 0.014	1.85 ± 0.047
ACCCUU	1.974 ± 0.013	1.92 ± 0.06
ACCCUC	1.936 ± 0.0052	1.895 ± 0.00022
ACGCGA	1.77 ± 0.072	1.29 ± 0.05
ACGCGU	1.95 ± 0.021	1.57 ± 0.096
ACGCAC	1.89 ± 0.022	1.7 ± 0.041
GCCAGA	1.909 ± 0.0037	1.72 ± 0.056
GCCAGU	1.92 ± 0.06	1.79 ± 0.046
GCCAGC	1.97 ± 0.047	1.81 ± 0.055
GCCAGG	1.872 ± 0.0046	1.43 ± 0.1
CCCCCA	1.94 ± 0.029	1.889 ± 0.0072
CCCCCU	2.01 ± 0.038	1.976 ± 0.014
CCCCCG	1.92 ± 0.064	1.93 ± 0.044
UCCAUU	1.959 ± 0.0064	1.89 ± 0.05
UCCAUA	1.899 ± 0.018	1.88 ± 0.024
UCGACA	1.93 ± 0.023	1.72 ± 0.063
UCGACU	1.93 ± 0.056	1.72 ± 0.035
UCGACG	1.94 ± 0.021	1.704 ± 0.007
UCGACC	1.976 ± 0.015	1.955 ± 0.011

Variant	normalized RNA/DNA level with ligand (log10) [1]	normalized RNA/DNA level without ligand (log10) [2]
CCCGAA	1.9 ± 0.085	1.76 ± 0.033
CCCGAC	1.959 ± 0.0051	1.84 ± 0.033
CCCGAU	1.97 ± 0.033	1.8 ± 0.029
CCCGAG	1.89 ± 0.035	1.65 ± 0.022
UCGCCC	1.981 ± 0.01	1.99 ± 0.069
UCGCCA	2.016 ± 0.0013	1.81 ± 0.034
UCGCCG	2 ± 0.035	1.841 ± 0.008
ACCAUG	1.91 ± 0.02	1.571 ± 0.013
ACGAUU	1.837 ± 0.0076	1.32 ± 0.019
ACGAUC	1.963 ± 0.0088	1.89 ± 0.013
ACGAAC	1.89 ± 0.036	1.58 ± 0.017
UCCGCU	1.94 ± 0.055	1.944 ± 0.0031
UCCGCC	1.992 ± 0.013	1.773 ± 0.015
UCCGCA	1.9294 ± 0.00025	1.807 ± 0.014
CCCCGA	1.95 ± 0.059	1.81 ± 0.025
CCCCGG	1.985 ± 0.0052	1.97 ± 0.035
CCCCGC	1.986 ± 0.019	1.9 ± 0.047
CCCCGU	1.94 ± 0.022	1.92 ± 0.055
ACCUGU	1.9472 ± 0.00096	1.81 ± 0.033
ACCUGC	1.99 ± 0.051	1.912 ± 0.016
